{"source": "paper PMC5818494", "about": "“Specific Recognition of Arginine Methylated Histone Tails by JMJD5 and JMJD7” (Scientific Reports, 2018)", "key": {"c-JMJD5 [1]": {"biological_target": "T1, c-JMJD5 (Homo sapiens, UniProt Q8N371)", "T1 construct": "JMJD5 (residues 183–416, c-JMJD5) lacking the N-terminal domain; made in house", "T1 sequence (Q8N371 183-416)": "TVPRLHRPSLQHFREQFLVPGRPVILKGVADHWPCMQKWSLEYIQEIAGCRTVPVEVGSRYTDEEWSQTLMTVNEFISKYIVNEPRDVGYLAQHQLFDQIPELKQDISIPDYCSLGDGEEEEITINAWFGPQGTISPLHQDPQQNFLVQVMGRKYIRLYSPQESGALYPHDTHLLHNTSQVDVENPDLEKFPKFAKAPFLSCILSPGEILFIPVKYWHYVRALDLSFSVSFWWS", "test": "Biacore surface plasmon resonance binding of c-JMJD5 to immobilised bulk histone or synthetic peptides", "details": "C-terminal biotin peptide on SA chip or bulk histone on CM5 chip, c-JMJD5 injected, room temperature", "protocol": "(§1) Data were integrated and scaled using the HKL2000 suite of programs.\n(§2) 10 μg/ml calf bulk histone was dissolved in coating buffer (50 mM sodium acetate [pH 5.0]) and coated onto a CM5 chip (GE Healthcare). […] For peptides, 2 μg/ml synthetic peptide with C-terminal biotin was dissolved in PBS and coated onto a streptavidin coated SA chip (GE Healthcare). […] Similar procedures were carried out for JMJD5. All experiments are carried out at room temperature."}, "JMJD7": {"biological_target": "T2, JMJD7 (Mus musculus, UniProt P0C872)", "T2 construct": "The final model contains residues 1–316; GST (N, cleaved yes); made in house", "T2 sequence (P0C872 whole entry, the tested form may be a part)": "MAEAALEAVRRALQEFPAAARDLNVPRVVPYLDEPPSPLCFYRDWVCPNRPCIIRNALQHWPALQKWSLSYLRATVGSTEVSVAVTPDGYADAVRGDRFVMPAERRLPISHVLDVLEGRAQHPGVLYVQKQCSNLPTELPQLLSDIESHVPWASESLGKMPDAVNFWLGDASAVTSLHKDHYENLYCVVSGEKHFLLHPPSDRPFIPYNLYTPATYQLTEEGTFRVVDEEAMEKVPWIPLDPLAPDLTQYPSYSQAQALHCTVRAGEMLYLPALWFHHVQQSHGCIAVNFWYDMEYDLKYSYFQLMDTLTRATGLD", "test": "Biacore surface plasmon resonance binding of JMJD7 to immobilised bulk histone or synthetic peptides", "details": "C-terminal biotin peptide on SA chip or bulk histone on CM5 chip, JMJD7 injected, room temperature", "protocol": "as §1, §2"}, "c-JMJD5 [2]": {"biological_target": "T1, c-JMJD5", "details": "fluorescence polarization, c-JMJD5, previous report; read-out: binding affinity; cited from earlier work", "text": "The binding affinities of various lysine binding domains, such as Chromodomains, PHD fingers, Tudor domains, etc., to lysine residues with and without methylation has been very well established. It is also true that the difference in binding affinity of Tudor domains to arginine with and without methylation is also marginal. The question here is whether c-JMJD5 or JMJD7 has different binding affinity depending on the methylation status of arginine. From the complex structure shown above, c-JMJD5 contains a binding pocket for methylarginine that is similar to those of Tudor domains (Fig ... || Clipping of histone tails, high turnover rates of histone in non-proliferating cells, arginine demethylation, and Pol II elongation control are highly contentious subjects in the transcription and epigenetic fields. Our previous novel discovery of clipping of arginine methylated histone tails by JMJD5 and JMJD7 sheds light on how these topics are intrinsically coupled. Data presented here not only reveal the underlying mechanism of novel enzymatic activities of JMJD5 and JMJD7, but also further corroborate our previous findings. Shortly after the release of our report, Shen et al. also repo ..."}}}
{"substance": "pH3: native form of H3 peptide (1–21)", "values": [{"measurement": "binding in words (SPR sensorgram)", "setting": "c-JMJD5 [1]", "result": "non-specific binding"}, {"measurement": "binding in words (SPR sensorgram)", "setting": "JMJD7", "result": "non-specific binding"}, {"measurement": "Kd", "setting": "c-JMJD5 [2]", "result": "~7", "unit": "µM"}]}
